Data set [1] has as its target T1, GAPDH (Homo sapiens, UniProt P04406 1-335). In words: fluorescence polarization; 10 mM Tris-HCl pH 8.0, 50 mM KCl, 2 mM DTT, 0.5 mM EDTA, 0.1 mg/ml BSA, 0.1 mg/ml heparin, room temperature; FP 30 min with 2 nM RNA; EMSA 20 min plus 10% glycerol and RiboLock, 6% native gel at 4°C; mass photometry without BSA/heparin. Particulars: protein: recombinant, tags: N-terminal His, chain copies: 4, single strand. (In general: Polarisation of emitted light reports the rotation of a fluorescent probe.)

Data set [2] addresses T1, GAPDH. In words: EMSA, possibly a misprint for nM; 10 mM Tris-HCl pH 8.0, 50 mM KCl, 2 mM DTT, 0.5 mM EDTA, 0.1 mg/ml BSA, 0.1 mg/ml heparin, room temperature; FP 30 min with 2 nM RNA; EMSA 20 min plus 10% glycerol and RiboLock, 6% native gel at 4°C; mass photometry without BSA/heparin. As to conditions: protein: recombinant; tags: N-terminal His; chain copies: 4; label: fluorescein (Roche RNA labeling mix, internal); single strand. In general terms: A gel shift assay detects complexes by their altered migration in electrophoresis.

The target of data set [3] is T1, GAPDH. The data set can be described thus: EMSA; 10 mM Tris-HCl pH 8.0, 50 mM KCl, 2 mM DTT, 0.5 mM EDTA, 0.1 mg/ml BSA, 0.1 mg/ml heparin, room temperature; FP 30 min with 2 nM RNA; EMSA 20 min plus 10% glycerol and RiboLock, 6% native gel at 4°C; mass photometry without BSA/heparin. Particulars: protein: recombinant, tags: N-terminal His, chain copies: 4, single strand.

T1 sequence (P04406 whole entry): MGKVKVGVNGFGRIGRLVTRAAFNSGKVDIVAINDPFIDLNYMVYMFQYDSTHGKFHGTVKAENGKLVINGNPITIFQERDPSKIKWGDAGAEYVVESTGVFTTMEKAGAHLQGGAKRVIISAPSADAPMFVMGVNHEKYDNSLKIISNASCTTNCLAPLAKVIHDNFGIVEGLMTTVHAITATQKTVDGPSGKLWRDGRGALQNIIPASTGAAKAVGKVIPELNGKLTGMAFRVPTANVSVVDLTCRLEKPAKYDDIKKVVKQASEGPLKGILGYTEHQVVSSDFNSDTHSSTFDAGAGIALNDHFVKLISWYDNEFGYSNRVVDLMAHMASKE

The Kd is the constant that tells how readily two partners part at equilibrium. Consider UGGCCAAUGCCCUGGCUCACAAAUACCACUG (ssRNA) [Rβ31], for which, in data set [1] (S17 legend says FITC-labeled RNA), the Kd amounted to 1310 nM.

B1: RPL13a 5'UTR (ssRNA)
RNA: GGGCCUCCUUUUCCAAGCGGCUGCCGAAGAUGGCGGAGGUGCAGGUCCUGGUGCUUGAUGGUCGAGGCCAUCUCCUGGGCCGCCUGGCGGCCAUCGUGGCUAAACAG
Turning to B1, the Kd in data set [2] came to 887000 nM. As for GUGAUUAUUUAUUAUUUAUUUAUUAUUUAUUUAUUUAG (ssRNA) [TNFα-ARE38], the Kd was found to be 167 nM in data set [1] and 217 nM in data set [3].

B2: GAPDH 5'UTR (ssRNA)
RNA: GGGCUCUCUGCUCCUCCUGUUCGACAGUCAGCCGCAUCUUCUUUUGCGUCGCCAGCCGAGCCACAUCGCUCAGACACC
As to B2, the Kd in data set [3] (label: fluorescein (Roche RNA labeling mix, internal)) is 400 nM.

The values are drawn from publication PMC12582121, “RNA binding of GAPDH controls transcript stability and protein translation in acute myeloid leukemia”.
